From EP4644420A1 (Unicet Biotech. LLC, dated 2025)
“And” between values parts separate entries of the source, which are not always exact repeats. Equal values may be shown once.

Tests used:
[1] = target: B7-H3 antigen protein (UniProt Q5ZPR3); assay: blocking ELISA, coated B7-H3 10 µg/mL; no blocker (m1B4 0 µg/mL); 8H9 2 µg/mL
[2] = target: B7-H3 antigen protein (UniProt Q5ZPR3); assay: blocking ELISA, coated B7-H3 10 µg/mL; no blocker (m2Y31 0 µg/mL); 8H9 2 µg/mL
[3] = target: B7-H3 antigen protein (UniProt Q5ZPR3); assay: blocking ELISA, coated B7-H3 10 µg/mL; no blocker (m2Y31 0 µg/mL); hu2Y31 2 µg/mL

Chain of B7-H3 antigen protein (Q5ZPR3 29-461): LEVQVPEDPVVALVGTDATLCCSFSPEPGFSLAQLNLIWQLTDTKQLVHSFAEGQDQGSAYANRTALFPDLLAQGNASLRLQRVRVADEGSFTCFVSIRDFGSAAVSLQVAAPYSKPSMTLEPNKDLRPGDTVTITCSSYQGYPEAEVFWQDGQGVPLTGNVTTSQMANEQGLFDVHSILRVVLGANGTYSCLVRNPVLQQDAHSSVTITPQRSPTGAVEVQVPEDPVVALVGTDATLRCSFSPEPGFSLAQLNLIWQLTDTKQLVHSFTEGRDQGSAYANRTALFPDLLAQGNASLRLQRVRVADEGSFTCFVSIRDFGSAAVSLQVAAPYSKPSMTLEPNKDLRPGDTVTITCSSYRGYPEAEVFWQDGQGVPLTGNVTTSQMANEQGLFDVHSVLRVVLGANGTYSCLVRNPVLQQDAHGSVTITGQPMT

| OD value (450 nm) [1] | OD value (450 nm) [2] [OD450] | OD value (450 nm) [3] | Binder |
| --- | --- | --- | --- |
| 3.38 OD450 and 3.39 OD450 | 2.36 | – | antibody 8H9 (antibody, from another filing, V domains shown) VH: QVQLQQSGAELVKPGASVKLSCKASGYTFTNYDINWVRQRPEQGLEWIGWIFPGDGSTQYNEKFKGKATLTTDTSSSTAYMQLSRLTSEDSAVYFCARQTTATWFAYWGQGTLVTVSA VL: DIVMTQSPATLSVTPGDRVSLSCRASQSISDYLHWYQQKSHESPRLLIKYASQSISGIPSRFSGSGSGSDFTLSINSVEPEDVGVYYCQNGHSFPLTFGAGTKLELKR |
| – | – | 2.07 OD450 and 2.02 OD450 | humanized 2Y31 antibody (antibody, V domains shown) VH: EVQLVESGGGLVKPGGSLKLSCAASGFAFSRYDMSWVRQSPEKRLEWVATISDDGRHTYDRDSVKGRFTISRDNAKNTLYLQMSSLRSEDTALYYCVRHRAITTARFDYWGQGTTVTVSS VL: DIVMTQSPSSLSVSLGDTVSITCKASQDIYSNIGWLQQLPGQSFKGLIYHGTNLEDGVPSRFSGSGSGTDYSLTISGLESEDFADYYCLQYVQFPYTFGGGTKLEIKA |
